Assays:
[1] = target: caspase 7 lacking the N-terminal 53 amino acid prodomain (caspase 7^53) (human) (UniProt P55210); experiment: cell-based or functional assay
[2] = target: C. elegans caspase CED-3 (C. elegans) (UniProt P42573); experiment: cell-based or functional assay
UniProt P42573, sequence (P42573 whole entry): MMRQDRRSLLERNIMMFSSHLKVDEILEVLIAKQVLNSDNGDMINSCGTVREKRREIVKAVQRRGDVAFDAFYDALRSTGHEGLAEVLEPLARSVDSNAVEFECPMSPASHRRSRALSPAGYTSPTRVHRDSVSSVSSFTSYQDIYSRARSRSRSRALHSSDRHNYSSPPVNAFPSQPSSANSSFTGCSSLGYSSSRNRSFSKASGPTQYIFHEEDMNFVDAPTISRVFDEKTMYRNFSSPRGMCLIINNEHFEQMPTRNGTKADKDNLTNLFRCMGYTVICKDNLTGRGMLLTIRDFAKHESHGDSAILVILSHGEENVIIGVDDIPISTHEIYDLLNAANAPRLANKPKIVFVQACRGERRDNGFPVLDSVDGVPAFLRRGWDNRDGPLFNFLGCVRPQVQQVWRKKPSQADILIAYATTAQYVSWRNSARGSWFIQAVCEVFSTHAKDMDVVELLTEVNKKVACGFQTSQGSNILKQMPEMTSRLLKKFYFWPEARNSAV

UniProt P55210, sequence (P55210 54-303 limits assumed): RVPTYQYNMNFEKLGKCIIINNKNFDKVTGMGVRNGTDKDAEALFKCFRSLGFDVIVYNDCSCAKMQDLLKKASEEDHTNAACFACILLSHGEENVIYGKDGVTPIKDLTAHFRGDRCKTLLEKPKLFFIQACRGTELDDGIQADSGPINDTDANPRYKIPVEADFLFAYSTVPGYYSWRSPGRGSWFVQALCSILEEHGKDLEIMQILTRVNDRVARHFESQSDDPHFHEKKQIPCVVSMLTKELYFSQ

Q: For “baculovirus p35 (from UniProt P08160 1-299)”, which beta-gal activity (ONPG assay) of the caspase-dependent CLBDG6 LexA/lacZ reporter in yeast (fold inhibition) [1] is on record?
A: The beta-gal activity (ONPG assay) of the caspase-dependent CLBDG6 LexA/lacZ reporter in yeast (fold inhibition) was 5.

Q: What about the beta-gal activity (ONPG assay) of the caspase-dependent CLBDG6 LexA/lacZ reporter in yeast (fold inhibition) [2] of the same substance?
A: Its beta-gal activity (ONPG assay) of the caspase-dependent CLBDG6 LexA/lacZ reporter in yeast (fold inhibition) is 5.

Q: “mouse IAP MIHA (from UniProt Q60989 1-496)” was tested. Which beta-gal activity (ONPG assay) of the caspase-dependent CLBDG6 LexA/lacZ reporter in yeast (fold inhibition) [1] did it give?
A: The beta-gal activity (ONPG assay) of the caspase-dependent CLBDG6 LexA/lacZ reporter in yeast (fold inhibition) was 2.
